Experiments:
[1] = target: angiotensin AT4 receptor of Macaca fascicularis brain (Macaca fascicularis); assay: competition for [125I]Ang IV binding, monkey prefrontal cortical sections
[2] = target: AT4 receptor of sheep central nervous system (sheep); assay: competition for [125I]Ang IV binding, sheep cerebellar cortical membranes
[3] = target: AT4 receptor of sheep central nervous system (sheep); assay: competition for 125I-LVV-haemorphin-7 binding, sheep cerebellar cortical membranes
[4] = target: embryonic chicken AT4 receptor (chicken); assay: competition for [125I]Ang IV binding, E13 chicken chorioallantoic membranes
[5] = target: embryonic chicken Ang II receptor (chicken); assay: competition for 125I[Sar1Ile8]Ang II binding, E13 chicken chorioallantoic membranes
Sequence of embryonic chicken Ang II receptor (chicken) (P79785 whole entry): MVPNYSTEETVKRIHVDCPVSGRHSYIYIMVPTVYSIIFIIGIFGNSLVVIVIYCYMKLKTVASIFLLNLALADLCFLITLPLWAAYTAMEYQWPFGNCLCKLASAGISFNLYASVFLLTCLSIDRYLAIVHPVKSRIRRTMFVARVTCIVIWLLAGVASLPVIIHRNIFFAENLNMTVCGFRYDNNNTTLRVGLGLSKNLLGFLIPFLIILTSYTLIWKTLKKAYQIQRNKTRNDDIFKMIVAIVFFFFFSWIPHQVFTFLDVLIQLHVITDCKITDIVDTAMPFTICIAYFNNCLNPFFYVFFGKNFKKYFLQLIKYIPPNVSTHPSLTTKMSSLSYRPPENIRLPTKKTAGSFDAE

Row | Substance | IC50 [1] | IC50 [2] | IC50 [3] | concentration effective at competing for 50% of the sites [4] | IC50 [5]
1 | angiotensin III (from UniProt P01019 26-32) (peptide) | 80 nM | 6.9 nM | 77 nM |  | 
2 | CGP 42112 (peptide) |  |  |  | 0.5 µM | 180 nM
3 | angiotensin II (from UniProt P01019 25-32) (peptide) | 730 nM | 2000 nM | 1600 nM |  | 100 nM

Reference: US20020147129A1
